Measurements published in patent US20230313187A1, “MODIFICATIONS OF MAMMALIAN CELLS USING ARTIFICIAL MICRO-RNA TO ALTER THEIR PROPERTIES AND THE COMPOSITIONS OF THEIR PRODUCTS” (DNA TWOPOINTO INC., priority 2020, published 2023).

System: Cricetulus griseus dihydrofolate reductase mRNA
Assay: Growth of a clonal cell line with amiRNA targeted toward dihydrofolate reductase with/without HT and MTX
Format: cell-based
Settings: 50 nM MTX, no HT
Protocol: A monoclonal line (C426) was derived from the pool transfected with the transposon comprising multi-hairpin amiRNA with nucleotide sequence SEQ ID NO: 210 and selected with 800 μg/ml G418 described in Section 6.5.1. Growth of this clonal cell line in the presence and absence of HT and in the absence of HT and presence of 50 nM MTX was compared with the growth of a control cell line from which C426 was derived.
Cells were transferred to Sigma Advanced Fed Batch media with 5 uM glutamine and to an initial a density of 0.3×10^6 live cells/ml. Parallel cultures were grown (a) in the presence of HT, (b) in the absence of HT and (c) in the absence of HT and the presence of 50 nM MTX. At day 4, all cultures were diluted to adjust viable cell densities to 0.3×10^6 cell/ml. At day 8, all cultures were again diluted to adjust viable cell densities to 0.3×10^6 cell/ml. At day 13, all cultures except for the culture of C426 with 50 nM MTX were again diluted to adjust viable cell densities to 0.3×10^6 cell/ml.
Table 12. Growth of a clonal cell line with amiRNA targeted toward dihydrofolate reductase. […] Viable cell densities were measured at various times after the beginning of the experiment: the cell line is shown in column A, the presence of HT is indicated in column B and the concentration of MTX is shown in column C. […]

B1: SEQ ID NO: 210: three-hairpin amiRNA, guides SEQ ID NOs 82, 83, 84 complementary to Cricetulus griseus dihydrofolate reductase mRNA (nucleic acid)
chain: ATCTGATCTTCTGAAGAAAATATATTTCTTTTTATTCATAGCTCTTAACTAGTGGTGATAGCAATGTCAGCAGTGCCTTAACTCATAGATCTAAAGCCAAGTGAAGCCACAGATGTTGGCTTTAGCTCTATGAGTTCAAGTAAGGTTGACCATACTCTACTCTAGAGTTGTGTTTTAATGTATATTAATGTTACTAATGTGTTTACTAGTGGTGATAGCAATGTCAGCAGTGCCTTAGAGTACAACAGTTGCCCAGGGTGAAGCCACAGATGCCTGGGCAACCGTTGTACTCTCAAGTAAGGTTGACCATACTCTACTCTAGGTTATTTTTAGTATGATTCTGTAAAAATGAATTAATACTAACTAGTGGTGATAGCAATGTCAGCAGTGCCTTTGTTTAGAATTATACAGGGGCGTGAAGCCACAGATGGCCCCTGTATCATTCTAAACACAAGTAAGGTTGACCATACTCTACTCTAGTCAGTTTTATTGATAGTCTTTTCAGTATTATTGATAATCTT
  effect of MTX in the growth media on growth: sensitizes cells to the presence of MTX in the growth media
